Each block holds one molecule with its values, some of them ahead of it. Positions of bridges follow the written chain, without caps; N, C: chain ends. Chains are numbered I, II in the order given. No end group written: not given here.
Tests used:
[1] = system: collagen expression, rheumatoid synovial fibroblasts (Strain No. RSF64); assay: Inhibition of collagen expression by synovial fibroblasts; format: cell-based, human
Experimental: The method for detecting and measuring collagen formation in the presence of relaxin described in Unemori and Amento, 1990, J. Biol. Chem. 265:10681-685 has been modified as follows to determine the ability of RLF, in vitro, to modulate the expression of collagen. Materials and Methods. Rheumatoid synovial fibroblasts (Strain No. […] The cells were simultaneously biosynthetically labelled with ^3H=[…] μCi/ml) in the presence of ascorbate and BAPN. After 24 hours, the conditioned media were collected and electrophoresed on 4-12% polyacrylamide gels (NOVEX) under reducing conditions. Gels were enhanced, dried, and exposed to X-ray films for 1-2 weeks. Collagen bands were identified on the X-ray films as bacterial collagenase-sensitive, proline-incorporating bands between 95-200 kDa. Band density was quantified by scanning densitometry and used as estimates of collagen expression.

[2] = system: crude membrane preparations of leg muscles, kidneys, liver, brain, and uterus; assay: Tissue specificity of 125I-RLF binding; set-up: species or system mouse; conditions: skeletal muscle, kidney and liver tested, female estrogen primed mice
Experimental: FIG. 6. FIG. 6 depicts the tissue distribution of RLF receptors in female estrogen primed mice as measured in vitro in a receptor-binding assay.
Tissue specificity was determined using crude membrane preparations of leg muscles, kidneys, liver. brain, and uterus (of estrogen primed mice). The crude membranes were prepared as described for relaxin. Binding was based on protein concentration determined by Lowry.

[3] = biological target: RLF receptor of mouse brain (mouse); assay: displacement of 125I-RLF tracer, mouse brain crude membranes; amount of competitor at 50% binding
[4] = biological target: RLF receptor of mouse uterus (mouse); assay: displacement of 125I-RLF tracer, mouse uterus crude membranes; amount of competitor at 50% binding
Sequence of RLF receptor of mouse uterus (mouse) (Q91ZZ5 whole entry): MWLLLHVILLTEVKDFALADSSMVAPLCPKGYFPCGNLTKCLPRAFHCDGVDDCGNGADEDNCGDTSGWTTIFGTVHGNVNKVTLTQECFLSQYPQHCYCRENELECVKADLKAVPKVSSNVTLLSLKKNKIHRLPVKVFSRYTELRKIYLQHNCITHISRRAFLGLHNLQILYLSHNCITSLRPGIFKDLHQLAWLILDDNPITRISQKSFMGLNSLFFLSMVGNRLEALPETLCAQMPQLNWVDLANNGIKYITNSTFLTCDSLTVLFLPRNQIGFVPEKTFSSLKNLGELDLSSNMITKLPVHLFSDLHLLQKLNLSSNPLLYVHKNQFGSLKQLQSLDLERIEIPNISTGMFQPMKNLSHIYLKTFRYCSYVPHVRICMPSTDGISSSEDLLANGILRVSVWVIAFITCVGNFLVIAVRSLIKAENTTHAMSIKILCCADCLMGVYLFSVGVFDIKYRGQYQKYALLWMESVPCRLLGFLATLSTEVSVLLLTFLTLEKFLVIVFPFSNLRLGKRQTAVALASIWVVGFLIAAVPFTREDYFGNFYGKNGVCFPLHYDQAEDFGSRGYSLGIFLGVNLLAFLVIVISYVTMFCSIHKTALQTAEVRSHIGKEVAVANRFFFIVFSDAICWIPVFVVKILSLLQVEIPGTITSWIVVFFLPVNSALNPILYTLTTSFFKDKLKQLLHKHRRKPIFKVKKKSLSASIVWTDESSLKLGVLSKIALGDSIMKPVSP

[5] = biological target: mouse brain relaxin receptor (mouse); assay: displacement of porcine relaxin tracer, mouse brain crude membranes; amount of competitor at 50% binding
[6] = biological target: mouse uterine relaxin receptor (mouse); assay: displacement of porcine relaxin tracer, mouse uterus crude membranes; amount of competitor at 50% binding
Sequence of mouse uterine relaxin receptor (mouse) (Q6R6I7 whole entry): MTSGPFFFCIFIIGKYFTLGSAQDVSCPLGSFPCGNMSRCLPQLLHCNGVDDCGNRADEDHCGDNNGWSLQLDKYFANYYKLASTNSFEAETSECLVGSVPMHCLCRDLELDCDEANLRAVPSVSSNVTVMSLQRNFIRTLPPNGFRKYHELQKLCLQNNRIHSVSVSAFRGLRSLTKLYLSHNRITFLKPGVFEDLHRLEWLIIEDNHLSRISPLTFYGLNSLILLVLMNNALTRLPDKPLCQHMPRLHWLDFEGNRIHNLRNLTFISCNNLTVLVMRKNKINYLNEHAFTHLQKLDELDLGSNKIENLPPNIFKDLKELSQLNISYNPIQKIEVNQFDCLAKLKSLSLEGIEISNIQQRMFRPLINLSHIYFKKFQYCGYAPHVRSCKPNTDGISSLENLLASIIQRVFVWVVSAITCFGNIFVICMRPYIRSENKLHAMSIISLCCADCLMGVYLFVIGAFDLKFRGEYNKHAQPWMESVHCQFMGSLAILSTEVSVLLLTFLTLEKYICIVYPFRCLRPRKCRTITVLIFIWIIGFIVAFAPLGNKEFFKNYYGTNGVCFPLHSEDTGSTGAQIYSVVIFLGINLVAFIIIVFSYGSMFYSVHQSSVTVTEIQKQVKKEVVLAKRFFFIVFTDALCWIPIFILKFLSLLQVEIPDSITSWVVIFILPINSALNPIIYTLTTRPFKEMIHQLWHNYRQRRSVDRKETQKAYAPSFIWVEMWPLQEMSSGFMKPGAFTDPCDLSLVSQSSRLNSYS

[7] = biological target: mouse brain relaxin receptor (mouse); assay: displacement of porcine relaxin tracer, mouse brain crude membranes

Molecule: TGF-β [reference compound]
increase of collagen expression over untreated fibroblasts [1]: 3.75 fold

Molecule: ^125I-RLF: 125I-labeled RLF used as tracer (chain 1 AAATNPARYCCLSGCTQQDLLTLCPY; chain 2 PTPEMREKLCGHHFVRALVRVCGGPRWSTEA; disulfide I:11-II:10; cysteine pairing not given here; also: 125I-labeled (site not given here))
tissues showing specific binding [2]: only the brain- and the uterus membrane preparation showed specific binding

50% Binding [3]: 1000 ng
50% Binding [4]: 800 ng
50% Binding [5]: 1 ng
50% Binding [6]: 1 ng
B1: human relaxin (ligand)
chain 1: QLYSALANKCCHVGCTKRSLARFC
chain 2: DSWMEEVIKLCGRELVRAQIAICGMSTWS

excess that displaces 50% of the relaxin tracer [7]: 100 fold excess
50% Binding [3]: 0.3 ng
50% Binding [4]: 0.3 ng
50% Binding [5]: 200 ng
50% Binding [6]: 10000 ng
B2: human relaxin-like factor (RLF), synthetic (ligand)
chain 1: AAATNPARYCCLSGCTQQDLLTLCPY
chain 2: PTPEMREKLCGHHFVRALVRVCGGPRWSTEA
